The values below come from patent US20090208454A1 (AMBRX, published 2009).

The assay deals with T1, IFNAR2 extracellular domain (UniProt P48551 27-243, limits assumed).
T1 construct: extracellular domain; It was immobilized on a CM5 Biacore chip by lysine-specific coupling; also called IFNAR2ECD; IFNAR ECD
T1 sequence (looked up): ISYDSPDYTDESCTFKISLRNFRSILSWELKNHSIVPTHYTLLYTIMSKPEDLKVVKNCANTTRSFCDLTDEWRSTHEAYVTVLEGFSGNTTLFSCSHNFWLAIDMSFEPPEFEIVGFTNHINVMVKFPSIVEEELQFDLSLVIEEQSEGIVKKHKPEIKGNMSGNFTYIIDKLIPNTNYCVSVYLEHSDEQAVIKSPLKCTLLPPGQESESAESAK
Kind of assay: Biacore SPR, IFNAR2 ECD immobilized on CM5 chip, IFN injected, 1:1 model, average Kd. How it is done: The refolding reaction was then concentrated to 25 ml using an Amicon stirring cell, and dialyzed overnight against 20 mM Tris, pH 8, 20 mM NaCl, 10% glycerol. Monomeric refolded IFNAR ECD was purified on HP Q Sepharose using the AKTA FPLC system (Amersham). Purified IFNAR2ECD was immobilized on CM5 Biacore chip using a lysine-specific coupling procedure recommended by the manufacturer. About 200 RUs of functional protein were immobilized. Various concentrations of IFN beta variants in HBS-EP buffer (Biacore) were injected at a flow rate of 50 mcl/minute over the flowcell containing immobilized IFNAR2, and a control flowcell containing immobilized bovine serum albumin. Sensograms generated were fit to the 1:1 interaction model to calculate kₒₙ, koff and Kd values using BiaEvaluation software (Biacore).
Background: SPR reads the build-up and loss of mass on a sensor chip optically.

B1: (C17S)-IFNβ (ligand)
chain: MSYNLLGFLQRSSNFQSQKLLWQLNGRLEYCLKDRMNFDIPEEIKQLQQFQKEDAALTIYEMLQNIFAIFRQDSSSTGWNETIVENLLANVYHQINHLKTVLEEKLEKEDFTRGKLMSSLHLKRYYGRILHYLKAKEYSHCAWTIVRVEILRNFYFINRLTGYLRN
notes: also called IFN beta with C17S substitution; (C17S)-IFN beta
As to B1, the Kd (usually the free concentration of one partner at which half of the binding sites on the other are occupied at equilibrium, for simple one-to-one binding) was 0.8 nM.
